Results: PMC5940202, “A novel α-galactosidase from the thermophilic probiotic Bacillus coagulans with remarkable protease-resistance and high hydrolytic activity” (PLoS ONE, 2018)

Experiments:
[1] = target: α-galactosidase Aga-BC7050 from Bacillus coagulans ATCC 7050 (Bacillus coagulans ATCC 7050); experiment: SEC; analytical gel filtration, Superdex 200 Increase 10/300 GL, 10 mM phosphate buffer, 0.14 M NaCl, pH 7.4, 0.75 mL/min, room temperature; calibrated with albumin, lactate dehydrogenase, catalase, ferritin, thyroglobulin; native mass compared with SDS-PAGE mass
Aga-BC7050 = target: T1, Aga-BC7050 (Heyndrickxia coagulans, UniProt A0A8B4BWV9); experiment: pNPGal hydrolysis with added sugar; assay type: biochemical; conditions: substrate pNPGal; McIlvaine buffer; galactose is also the reaction product
T1 construct: GH36 homodimer, 168 kDa by gel filtration; predicted nucleophile Asp477, acid/base Asp547
T1 sequence (A0A8B4BWV9 1-730): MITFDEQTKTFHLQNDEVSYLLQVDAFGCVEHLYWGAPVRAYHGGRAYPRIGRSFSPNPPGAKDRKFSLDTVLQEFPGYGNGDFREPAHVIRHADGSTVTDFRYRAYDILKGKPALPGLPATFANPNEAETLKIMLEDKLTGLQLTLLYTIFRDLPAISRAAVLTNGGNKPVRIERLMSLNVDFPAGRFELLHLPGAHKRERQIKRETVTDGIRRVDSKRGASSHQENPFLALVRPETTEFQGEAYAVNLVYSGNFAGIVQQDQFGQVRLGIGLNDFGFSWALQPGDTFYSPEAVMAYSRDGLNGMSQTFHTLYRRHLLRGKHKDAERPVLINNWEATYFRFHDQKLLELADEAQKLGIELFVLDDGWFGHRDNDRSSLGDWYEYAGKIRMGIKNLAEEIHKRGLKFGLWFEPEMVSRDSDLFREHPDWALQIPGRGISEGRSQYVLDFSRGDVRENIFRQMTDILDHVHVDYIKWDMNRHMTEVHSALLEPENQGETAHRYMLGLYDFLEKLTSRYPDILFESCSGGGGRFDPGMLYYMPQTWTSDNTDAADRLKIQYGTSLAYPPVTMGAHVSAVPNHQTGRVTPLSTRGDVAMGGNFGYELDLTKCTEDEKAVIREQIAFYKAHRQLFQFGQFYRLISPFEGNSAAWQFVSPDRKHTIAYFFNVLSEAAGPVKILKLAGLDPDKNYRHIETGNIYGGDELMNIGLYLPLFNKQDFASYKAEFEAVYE

purified protein [2] = substrate: O=[N+]([O-])c1ccc(O[C@H]2O[C@H](CO)[C@H](O)[C@H](O)[C@H]2O)cc1; experiment: purified protein; assay type: biochemical, Heyndrickxia coagulans; conditions: McIlvaine buffer pH 6.0, 55 °C
purified protein [3] = substrate: OC[C@H]1O[C@H](OC[C@H]2O[C@H](O[C@]3(CO)O[C@H](CO)[C@@H](O)[C@@H]3O)[C@H](O)[C@@H](O)[C@@H]2O)[C@H](O)[C@@H](O)[C@H]1O; experiment: purified protein; assay type: biochemical, Heyndrickxia coagulans; conditions: McIlvaine buffer pH 6.0, 55 °C

α-galactosidase Aga-BC7050 from Bacillus coagulans ATCC 7050 (enzyme)
stoichiometry N [1]: 2

OC[C@H]1OC(O)[C@H](O)[C@@H](O)[C@H]1O (stereo partly shown) [galactose]
% decrease of activity at 100 mM (Aga-BC7050): 24.4%

B1: Aga-BC7050 (Heyndrickxia coagulans DSM 1 = ATCC 7050) (protein)
chain: T1 sequence (A0A8B4BWV9 1-730)
notes: GH36 homodimer, 168 kDa by gel filtration; predicted nucleophile Asp477, acid/base Asp547
Km (purified protein [2]): 1.1 ± 0.2 mM
Vmax (purified protein [2]): 655 µmol/min/mg
kcat (purified protein [2]): 942 ± 73.9 s⁻¹
kcat/Km (purified protein [2]): 844000 M⁻¹ s⁻¹
Km (purified protein [3]): 53.7 ± 0.9 mM
Vmax (purified protein [3]): 1140 µmol/min/mg
kcat (purified protein [3]): 1610 ± 53.4 s⁻¹
kcat/Km (purified protein [3]): 30500 M⁻¹ s⁻¹
